This passage reports Kd results from PMC10470007 (The Journal of Biological Chemistry, 2023).

In this test the target is T1, 1N3R Tau protein isoform with a V5 insertion between E73 and A74 (V5 epitope tag (simian virus 5 P/V …, strain, labeled with Alexa Fluor 488 NHS (succinimidyl) ester, 2:1 NHS Alexa:Tau-V5)).
T1 construct: also called Tau-V5; labeled Tau-V5
Description: flow cytometry on cells. Conditions: one partner purified. Background: In flow cytometry, cells or beads pass a laser one at a time.

B1: NbV5-AGAP2-Halo-myc (VHH)
VHH: EVQLQASGGGFVQPGGSLRLSCAASGTTSFGDTMGWFRQAPGKEREFVSAISRQGDKHYYADSVKGRFTISRDNSKNTVYLQMNSLRAEDTATYYCAEWMNTRREFITPYWGQGTQVTVSS
notes: also called NbV5 (yeast surface display)
In general, Kd refers to a measure of binding affinity in units of concentration. The low end stands for higher affinity, the high end for lower affinity. Regarding B1, the Kd is 29 nM.
